According to US20210388087A1 (Chugai, published 2021):
Substitutions are numbered along the chain they refer to. In names and notes the source's numbering stands.

B1: H183/L072 VH G26K (antibody, name in Kabat numbering, V domains shown)
VH: QVQLVESGGGLVQPGRSLRLSCAASKFTFSNAWMHWVRQAPGKGLEWVAQIKDKGNAYAAYYAPSVKGRFTISRDDSKNSIYLQMNSLKTEDTAVYYCHYVHYASASTVLPAFGVDAWGQGTTVTVSS
VL: DIVMTQSPLSLPVTPGEPASISCQASQELVHMNRNTYLHWYQQKPGQAPRLLIYKVSNRFPGVPDRFSGSGSGTDFTLKISRVEAEDVGVYYCAQGTSVPFTFGQGTKLEIK
B2: H183/L072 VH G26S (antibody, name in Kabat numbering, V domains shown)
VH: B1 VH with K26S
VL: B1 VL
B3: H183/L072 VH G26V (antibody, name in Kabat numbering, V domains shown)
VH: B1 VH with K26V
VL: B1 VL
B4: H183/L072 VH G26T (antibody, name in Kabat numbering, V domains shown)
VH: B1 VH with K26T
VL: B1 VL
B5: H183/L072 VH G26Q (antibody, name in Kabat numbering, V domains shown)
VH: B1 VH with K26Q
VL: B1 VL
B6: H183/L072 VH G26R (antibody, name in Kabat numbering, V domains shown)
VH: B1 VH with K26R
VL: B1 VL
B7: H183/L072 VH G26M (antibody, name in Kabat numbering, V domains shown)
VH: B1 VH with K26M
VL: B1 VL
B8: H183/L072 VH G26L (antibody, name in Kabat numbering, V domains shown)
VH: B1 VH with K26L
VL: B1 VL
B9: H183/L072 VH G52cA (antibody, name in Kabat numbering, V domains shown)
VH: B1 VH with K26G, G55A
VL: B1 VL
B10: H183/L072 VH G52cH (antibody, name in Kabat numbering, V domains shown)
VH: B1 VH with K26G, G55H
VL: B1 VL
B11: H183/L072 VH G52cF (antibody, name in Kabat numbering, V domains shown)
VH: B1 VH with K26G, G55F
VL: B1 VL
B12: H183/L072 VH G52cE (antibody, name in Kabat numbering, V domains shown)
VH: B1 VH with K26G, G55E
VL: B1 VL
B13: H183/L072 VH G26Y (antibody, name in Kabat numbering, V domains shown)
VH: B1 VH with K26Y
VL: B1 VL
B14: H183/L072 VH G26W (antibody, name in Kabat numbering, V domains shown)
VH: B1 VH with K26W
VL: B1 VL
B15: H183/L072 VH G52cD (antibody, name in Kabat numbering, V domains shown)
VH: B1 VH with K26G, G55D
VL: B1 VL
B16: H183/L072 VH G26P (antibody, name in Kabat numbering, V domains shown)
VH: B1 VH with K26P
VL: B1 VL
B17: H183/L072 VH G26N (antibody, name in Kabat numbering, V domains shown)
VH: B1 VH with K26N
VL: B1 VL

Target: T1, Human CD3eg linker (human)
T1 construct: Single chain: epsilon and gamma subunits of human CD3 joined by a 29-mer linker, Flag-tag at the C-terminus; also called recombinant human CD3
T1 chain: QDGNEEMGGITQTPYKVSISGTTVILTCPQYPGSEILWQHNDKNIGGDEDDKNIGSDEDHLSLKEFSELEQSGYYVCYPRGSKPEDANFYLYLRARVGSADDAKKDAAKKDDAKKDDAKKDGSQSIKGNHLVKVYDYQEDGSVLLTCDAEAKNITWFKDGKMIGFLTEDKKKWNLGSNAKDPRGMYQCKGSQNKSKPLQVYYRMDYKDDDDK
Assay: Biacore SPR, vs template H183/L072

Row | Binder | fold change of affinity [fold]
1 | B1 | 0.6
2 | B2 | 0.2
3 | B3 | 0
4 | B4 | 0.4
5 | B5 | 0.4
6 | B6 | 0.5
7 | B7 | 0.6
8 | B8 | 0.6
9 | B9 | 1.6
10 | B10 | 1.7
11 | B11 | 2
12 | B12 | 1.2
13 | B13 | 0.6
14 | B14 | 0.6
15 | B15 | 1.1
16 | B16 | 0.1
17 | B17 | 0.4
